Results on one protein are retold here after paper PMC11955279, “The Molecular Mechanism of Interaction Between [sequence]3 and APETALA1 in Arabidopsis thaliana” (Plant Direct, 2025).

The data set deals with the molecule itself. As to the kind of experiment: native gel or EMSA; chemiluminescent EMSA; purified protein bound to the biotin-labelled AP1 probe (single CArG cassette) at room temperature; dimer band on the DNA probe. A general note: In EMSA bound probe runs differently from free probe, usually more slowly.

B1: AtSEP3, wild type, recombinant GST-tagged protein (natural protein, Arabidopsis thaliana, UniProt O22456 2-251, looked up)
chain: GRGRVELKRIENKINRQVTFAKRRNGLLKKAYELSVLCDAEVALIIFSNRGKLYEFCSSSSMLRTLERYQKCNYGAPEPNVPSREALAVELSSQQEYLKLKERYDALQRTQRNLLGEDLGPLSTKELESLERQLDSSLKQIRALRTQFMLDQLNDLQSKERMLTETNKTLRLRLADGYQMPLQLNPNQEEVDHYGRHHHQQQQHSQAFFQPLECEPILQIGYQGQQDGMGAGPSVNNYMLGWLPYDTNSI
notes: also called wild-type SEP3 protein; source: E. coli BL-21 (DE3), pGEX-4T-3, purified (GST-tagged protein purification kit)
Turning to B1, the binding result is reported as “binds”.
